Test results published in US20180371086A1.

Molecular target: human CD3, on primary human T cells (human) (UniProt P07766)
Assay: cell-based or functional assay

Sequence of human CD3, on primary human T cells (human) (P07766 23-207 limits assumed): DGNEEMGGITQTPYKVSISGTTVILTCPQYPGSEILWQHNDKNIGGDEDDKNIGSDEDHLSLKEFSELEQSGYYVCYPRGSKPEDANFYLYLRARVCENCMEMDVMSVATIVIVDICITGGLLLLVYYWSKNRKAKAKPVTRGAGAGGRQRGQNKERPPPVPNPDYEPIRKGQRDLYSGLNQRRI

PGT-121.60 (antibody)
CD25 EC50; CD4 T cells; donor D1597; 7552-infected CEM cells: > 100 µg/mL | CD25 EC50; CD4 T cells; donor D1597; THRO-infected CEM cells: > 100 µg/mL | CD25 EC50; CD4 T cells; donor D1597; uninfected CEM cells: > 100 µg/mL | CD25 EC50; CD4 T cells; donor D2256; 7552-infected CEM cells: > 100 µg/mL | CD25 EC50; CD4 T cells; donor D2256; THRO-infected CEM cells: > 100 µg/mL | CD25 EC50; CD4 T cells; donor D2256; uninfected CEM cells: > 100 µg/mL | CD25 EC50; CD4 T cells; donor D4246; 7552-infected CEM cells: > 100 µg/mL | CD25 EC50; CD4 T cells; donor D4246; THRO-infected CEM cells: > 100 µg/mL | CD25 EC50; CD4 T cells; donor D4246; uninfected CEM cells: > 100 µg/mL | CD25 EC50; CD4 T cells; donor D4279; 7552-infected CEM cells: > 100 µg/mL | CD25 EC50; CD4 T cells; donor D4279; THRO-infected CEM cells: > 100 µg/mL | CD25 EC50; CD4 T cells; donor D4279; uninfected CEM cells: > 100 µg/mL | CD25 EC50; CD8 T cells; donor D1597; 7552-infected CEM cells: > 100 µg/mL | CD25 EC50; CD8 T cells; donor D1597; THRO-infected CEM cells: > 100 µg/mL | CD25 EC50; CD8 T cells; donor D1597; uninfected CEM cells: > 100 µg/mL | CD25 EC50; CD8 T cells; donor D2256; 7552-infected CEM cells: > 100 µg/mL | CD25 EC50; CD8 T cells; donor D2256; THRO-infected CEM cells: > 100 µg/mL | CD25 EC50; CD8 T cells; donor D2256; uninfected CEM cells: > 100 µg/mL | CD25 EC50; CD8 T cells; donor D4246; 7552-infected CEM cells: > 100 µg/mL | CD25 EC50; CD8 T cells; donor D4246; THRO-infected CEM cells: > 100 µg/mL | CD25 EC50; CD8 T cells; donor D4246; uninfected CEM cells: > 100 µg/mL | CD25 EC50; CD8 T cells; donor D4279; 7552-infected CEM cells: > 100 µg/mL | CD25 EC50; CD8 T cells; donor D4279; THRO-infected CEM cells: > 100 µg/mL | CD25 EC50; CD8 T cells; donor D4279; uninfected CEM cells: > 100 µg/mL | CD25 Δ Emax; CD4 T cells; donor D1597; 7552-infected CEM cells: 0% | CD25 Δ Emax; CD4 T cells; donor D1597; THRO-infected CEM cells: -2% | CD25 Δ Emax; CD4 T cells; donor D1597; uninfected CEM cells: 3% | CD25 Δ Emax; CD4 T cells; donor D2256; 7552-infected CEM cells: 2% | CD25 Δ Emax; CD4 T cells; donor D2256; THRO-infected CEM cells: -1% | CD25 Δ Emax; CD4 T cells; donor D2256; uninfected CEM cells: -1% | CD25 Δ Emax; CD4 T cells; donor D4246; 7552-infected CEM cells: -2% | CD25 Δ Emax; CD4 T cells; donor D4246; THRO-infected CEM cells: -2% | CD25 Δ Emax; CD4 T cells; donor D4246; uninfected CEM cells: 0% | CD25 Δ Emax; CD4 T cells; donor D4279; 7552-infected CEM cells: -1% | CD25 Δ Emax; CD4 T cells; donor D4279; THRO-infected CEM cells: -2% | CD25 Δ Emax; CD4 T cells; donor D4279; uninfected CEM cells: 0% | CD25 Δ Emax; CD8 T cells; donor D1597; 7552-infected CEM cells: -1% | CD25 Δ Emax; CD8 T cells; donor D1597; THRO-infected CEM cells: 0% | CD25 Δ Emax; CD8 T cells; donor D1597; uninfected CEM cells: 0% | CD25 Δ Emax; CD8 T cells; donor D2256; 7552-infected CEM cells: 0% | CD25 Δ Emax; CD8 T cells; donor D2256; THRO-infected CEM cells: -1% | CD25 Δ Emax; CD8 T cells; donor D2256; uninfected CEM cells: 0% | CD25 Δ Emax; CD8 T cells; donor D4246; 7552-infected CEM cells: 1% | CD25 Δ Emax; CD8 T cells; donor D4246; THRO-infected CEM cells: 0% | CD25 Δ Emax; CD8 T cells; donor D4246; uninfected CEM cells: 0% | CD25 Δ Emax; CD8 T cells; donor D4279; 7552-infected CEM cells: 0% | CD25 Δ Emax; CD8 T cells; donor D4279; THRO-infected CEM cells: 1% | CD25 Δ Emax; CD8 T cells; donor D4279; uninfected CEM cells: 0% | CD69 EC50; CD4 T cells; donor D1597; 7552-infected CEM cells: > 100 µg/mL | CD69 EC50; CD4 T cells; donor D1597; THRO-infected CEM cells: > 100 µg/mL | CD69 EC50; CD4 T cells; donor D1597; uninfected CEM cells: > 100 µg/mL | CD69 EC50; CD4 T cells; donor D2256; 7552-infected CEM cells: > 100 µg/mL | CD69 EC50; CD4 T cells; donor D2256; THRO-infected CEM cells: > 100 µg/mL | CD69 EC50; CD4 T cells; donor D2256; uninfected CEM cells: > 100 µg/mL | CD69 EC50; CD4 T cells; donor D4246; 7552-infected CEM cells: > 100 µg/mL | CD69 EC50; CD4 T cells; donor D4246; THRO-infected CEM cells: > 100 µg/mL | CD69 EC50; CD4 T cells; donor D4246; uninfected CEM cells: > 100 µg/mL | CD69 EC50; CD4 T cells; donor D4279; 7552-infected CEM cells: > 100 µg/mL | CD69 EC50; CD4 T cells; donor D4279; THRO-infected CEM cells: > 100 µg/mL | CD69 EC50; CD4 T cells; donor D4279; uninfected CEM cells: > 100 µg/mL | CD69 EC50; CD8 T cells; donor D1597; 7552-infected CEM cells: > 100 µg/mL | CD69 EC50; CD8 T cells; donor D1597; THRO-infected CEM cells: > 100 µg/mL | CD69 EC50; CD8 T cells; donor D1597; uninfected CEM cells: > 100 µg/mL | CD69 EC50; CD8 T cells; donor D2256; 7552-infected CEM cells: > 100 µg/mL | CD69 EC50; CD8 T cells; donor D2256; THRO-infected CEM cells: > 100 µg/mL | CD69 EC50; CD8 T cells; donor D2256; uninfected CEM cells: > 100 µg/mL | CD69 EC50; CD8 T cells; donor D4246; 7552-infected CEM cells: > 100 µg/mL | CD69 EC50; CD8 T cells; donor D4246; THRO-infected CEM cells: > 100 µg/mL | CD69 EC50; CD8 T cells; donor D4246; uninfected CEM cells: > 100 µg/mL | CD69 EC50; CD8 T cells; donor D4279; 7552-infected CEM cells: > 100 µg/mL | CD69 EC50; CD8 T cells; donor D4279; THRO-infected CEM cells: > 100 µg/mL | CD69 EC50; CD8 T cells; donor D4279; uninfected CEM cells: > 100 µg/mL | CD69 Δ Emax; CD4 T cells; donor D1597; 7552-infected CEM cells: 0% | CD69 Δ Emax; CD4 T cells; donor D1597; THRO-infected CEM cells: 0% | CD69 Δ Emax; CD4 T cells; donor D1597; uninfected CEM cells: 1% | CD69 Δ Emax; CD4 T cells; donor D2256; 7552-infected CEM cells: 0% | CD69 Δ Emax; CD4 T cells; donor D2256; THRO-infected CEM cells: 0% | CD69 Δ Emax; CD4 T cells; donor D2256; uninfected CEM cells: 0% | CD69 Δ Emax; CD4 T cells; donor D4246; 7552-infected CEM cells: 3% | CD69 Δ Emax; CD4 T cells; donor D4246; THRO-infected CEM cells: 1% | CD69 Δ Emax; CD4 T cells; donor D4246; uninfected CEM cells: -1% | CD69 Δ Emax; CD4 T cells; donor D4279; 7552-infected CEM cells: 3% | CD69 Δ Emax; CD4 T cells; donor D4279; THRO-infected CEM cells: 0% | CD69 Δ Emax; CD4 T cells; donor D4279; uninfected CEM cells: 0% | CD69 Δ Emax; CD8 T cells; donor D1597; 7552-infected CEM cells: 0% | CD69 Δ Emax; CD8 T cells; donor D1597; THRO-infected CEM cells: 0% | CD69 Δ Emax; CD8 T cells; donor D1597; uninfected CEM cells: 0% | CD69 Δ Emax; CD8 T cells; donor D2256; 7552-infected CEM cells: 0% | CD69 Δ Emax; CD8 T cells; donor D2256; THRO-infected CEM cells: 0% | CD69 Δ Emax; CD8 T cells; donor D2256; uninfected CEM cells: 0% | CD69 Δ Emax; CD8 T cells; donor D4246; 7552-infected CEM cells: 0% | CD69 Δ Emax; CD8 T cells; donor D4246; THRO-infected CEM cells: 0% | CD69 Δ Emax; CD8 T cells; donor D4246; uninfected CEM cells: 0% | CD69 Δ Emax; CD8 T cells; donor D4279; 7552-infected CEM cells: -4% | CD69 Δ Emax; CD8 T cells; donor D4279; THRO-infected CEM cells: 0% | CD69 Δ Emax; CD8 T cells; donor D4279; uninfected CEM cells: 0%
